The values below come from PMC9517163 (2022).

Sequences and labels used below:
B1: minke whale ACE2, mFc-tagged (Fc fusion)
chain: QSTTEEQAKTFLQKFDHEAEDLSYRSSLASWNYNTNITDENVQKMNAARAKWSAFYEEQSRIAKTYPLEEIQNLTLKRQLQALQQSGTSVLSADKSKRLNTILNTMSTIYSSGKVLDPNTQEYLVLEPGLDDIMENSEDYNRRLWAWEGWRAEVGKQLRPFYEEYVVLENEMARANNYEDYGDYWRGDYEVTGADGYDYSRNQLIADVERTFAEIKPLYEQLHAYVRAKLMDAYPSRISPTGCLPAHLLGDMWGRFWTNLYPLTVPFGEKPSIDVTKEMQNQSWDAKRIFKEAEKFFVSIGLPNMTQEFWVNSMLTEPGDGRKVVCHPTAWDLGKGDFRIKMCTKVTMDDFLTAHHEMGHIQYDMAYATQPFLLRNGANEGFHEAVGEIMSLSAATPHYLKALGLLPPDFYEDNVTEINFLLKQALQIVGTLPFTYMLEKWRWMVFKGEIPKEQWMQKWWEMKREIVGVVEPLPHDETYCDPACLFHVAEDYSFIRYYTRTIYQFQFHEALCQTAKHEGPLYKCDISNSTEAGQRLLQMLHLGKSEPWTLALENIVGVKTMDVKPLLNYFEPLLTWLKEQNRNSPVGWSTDWTPYSDQSIKVRISLKSALGEKAYEWNDNEMYLFQSSVAYAMREYFSKVRNETIPFGEKDVWVSDLKPRISFNFFVTTPKNVSDIIPRTEVEEAIRMSRGRINDAFRLDDNSLEFLGIQPTLGPPYEPPVT
B2: dolphin ACE2, mFc-tagged (Fc fusion)
chain: QSATEERAKTFLQKFDREAEDLSYQSSLASWNYNTNITDENVQKMNAAGAKWSAFYEEQSRIAKTYPLEEIRNLTLKRQLQVLQQSGTSVLSADKSKRLNAILSTMSTIYSSGKVLDPNTQESLVLEPGLDDIMENSKDYNRRLWAWEGWRAEVGKQLRPLYEEYVVLENEMARANNYEDYGDYWRGDYEVTGAGDYDYSRDQLIRDVERTFAEIKPLYEQLHAYVRAKLMDAYPSRISPTGCLPAHLLGDMWGRFWTNLYPLTVPFGERPSIDVTKEMQNQSWDAKRIFKEAEKFFVSIGLPNMTQGFWDNSMLTEPGDGRKVVCHPTAWDLGKGDFRIKMCTKVTMDDFLTAHHEMGHIQYDMAYATQPYLFRNGANEGFHEAVGEIMSLSAATPHYLKALGLLPPDFYEDSATEINFLLKQALTIVGTLPFTYMLEKWRWMVFKGEIPKEQWMQKWWEMKREIVGVVEPLPHDETYCDPACLFHVAEDYSFIRYYTRTIYQFQFHEALCQTAKHEGPLYKCDISNSTEAGQRLLQMLHLGKSEPWTSALERIVGVKTMDVKPLLNYFEPLLTWLKGQNRNSFVGWRTDWTPYSNQSIKVRISLKSALGEKAYEWNDNEMYLFRSSVAYAMREYFSKVRNKTIPFGEKDVWVSDLKPRISFNFFVTSPKNMSDIIPRTEVEEAIRMSRGRINDAFRLDDSSLEFLGVQPTLAPPYEPPVT
B3: fur seal ACE2, mFc-tagged (Fc fusion)
chain: RSTTEDLVKTFLEKFNSEAEELSYQSSFASWNYNTNITDENVQKMNDAGAKWSAFYEEQSKQAKTYPLEEIQDSTVKRQLQALQHSGSSVLSVDKSQRLNTILNAMSTIYSTGKACNPNNPQECLLLEPGLDDIMANSRDYNERLWAWEGWRSEVGKQLRPLYEEYVALKNEMARANNYEDYGDYWRGDYEEEWTNGYNYSRDQLIKDVEQTFTQIQPLYEHLHAYVRAKLMDTYPSHISPTGCLPAHLLGDMWGRFWTNLYPLTVPFGQKPNIDVTDTMVNQSWDARRIFEEAEKFFVSVGLPNMTQGFWENSMLTEPGDSRKVVCHPTAWDLGKHDFRIKMCTKVTMDDFLTAHHEMGHIQYDMAYAAQPFLLRNGANEGFHEAVGEIMSLSAATPKHLKNIGLLPPGFSEDNETDINFLFKQALTIVGTLPFTYMLEKWRWMVFKGEIPKEQWMKKWWEMKRDLVGVVEPLPHDETYCDPASLFHVANDYSFIRYYTRTIYQFQFQEALCQIAKHEGPLHKCDISNSSEAGQTLLQMLKLGRSKPWTLALYRVVGAKNMDVRPLLNYFDPLFTWLKEQNRNSFVGWNTDWSPYADQSIKVRISLKSALGEKAYEWNDNEMYLFRSSIAYAMREYFSKVKKQTIPFVEDNVWVNNLKPRISFTFFVTSPGNMSDIIPRADVEEAIRMSRGRINDAFRLDDNSLEFLGIQPTLEPPYQPPVT
B4: sea lion ACE2, mFc-tagged (Fc fusion)
chain: B3 chain with F28L, V93A, I239M, K643N, T645M
B5: sperm whale ACE2, mFc-tagged (Fc fusion)
chain: QSTTEEQAKTFLQKFDHEAEDLSYQSSLASWNYNTNITDENVQKMNAARAKWSAFYEEQSRTAKTYPLEEIQNLTLKRQLQALQQSGTSVLSADKSKRLNTILNTMSTIYSSGKVLDPNTQECLVLEPGLDDIMENSEDYSRRLWAWEAWRAEVGKQLRPLYEEYVVLENEMARANNYEDYGDYWRGDYEVTGAGDYDYSRDQLITDVERTFAEIKPLYEQLHAYVRAKLMDAYPSRISPTGCLPAHLLGDMWGRFWTNLYPLTVPFGEKSSIDVTKEMRNQSWDAKRIFKEAEKFFVSIGLPNMTQEFWDNSMLTEPGDGRKVVCHPTAWDLGKGDFRIKMCTKVTMDDFLTARHEMGHIQYDMAYATQPYLLRNGANEGFHEAVGEIMSLSAATPHYLKALGLLPPDFYEDSATEINFLLKQALKIVGTLPFTYMLEKWRWMVFKGEIPKEQWMQKWWEMKREIVGVVEPLPHDETYCDPACLFHVAEDYSFIRYYTRTIYQFQFHEALCQAAKHEGPLYKCDISNSTEAGQRLLQMLHLGKSEPWTSALENIVGVKTMDVKPLLNYFEPLLTWLKDQNRNSFVGWSTDWTPYSDQSIKVRISLKSALGEKAYEWNDNEMYLFRSSVAYAMREYFSKVRNETIPFGEEDVRVGDLKPRISFTFFVTSPKNVSDIIPRTEVEEAIRMSRGRINDAFRLDDNSLEFLGIEPTLGPPYEPPVT

Numbering of substitutions follows the chain as printed.

In general, Kd refers to the constant that tells how readily two partners part at equilibrium.

For the assay, the target named is SARS-CoV-2 receptor-binding domain (RBD), prototype (SARS-CoV-2, UniProt P0DTC2). Briefly: SPR.
As for B1, the dissociation constant Kd is 175 nM. On to B2, for which the Kd was 562 nM. For B3, the Kd was determined as 129 nM. As to B4, the Kd stood at 171 nM.

In turn, B5 returned a Kd of 234 nM.
